Source: article doi:10.1101/2021.03.25.436804 (bioRxiv, 2021)
Each block holds one molecule with its values, some of them ahead of it.

Key:
Experiment in all cases: BLI
[1] = molecular target: NRP2 a2b1b2 (human neuropilin 2 residues 145-595, monoFc-tagged) (human) (UniProt O60462)
[2] = molecular target: monoFc-tagged NRP2 (human neuropilin 2 residues 23-595, a1a2b1b2) (human) (UniProt O60462)
[3] = molecular target: soluble ectodomain of the HCMV Pentamer (strain Towne) (Human cytomegalovirus strain Towne, UniProt P17176;F5HCH8;P16837;F5HCP3;F5HET4)

monoFc-tagged NRP2 (human neuropilin 2 residues 23-595, a1a2b1b2) (human), sequence (O60462 23-595): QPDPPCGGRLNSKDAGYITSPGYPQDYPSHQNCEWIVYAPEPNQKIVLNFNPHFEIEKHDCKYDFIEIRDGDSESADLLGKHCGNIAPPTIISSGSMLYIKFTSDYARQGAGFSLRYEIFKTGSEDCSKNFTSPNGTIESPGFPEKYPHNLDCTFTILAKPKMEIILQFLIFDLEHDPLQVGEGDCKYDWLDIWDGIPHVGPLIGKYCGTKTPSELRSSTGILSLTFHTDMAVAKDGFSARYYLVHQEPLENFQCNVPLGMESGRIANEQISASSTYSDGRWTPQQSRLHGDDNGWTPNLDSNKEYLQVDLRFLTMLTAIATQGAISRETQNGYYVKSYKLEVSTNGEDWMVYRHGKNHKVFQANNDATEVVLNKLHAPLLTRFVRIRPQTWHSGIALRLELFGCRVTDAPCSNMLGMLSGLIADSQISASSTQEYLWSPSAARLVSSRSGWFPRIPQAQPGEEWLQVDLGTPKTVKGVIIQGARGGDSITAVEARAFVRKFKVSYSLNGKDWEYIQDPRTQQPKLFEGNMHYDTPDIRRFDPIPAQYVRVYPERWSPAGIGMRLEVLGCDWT
NRP2 a2b1b2 (human neuropilin 2 residues 145-595, monoFc-tagged) (human), sequence (O60462 145-595): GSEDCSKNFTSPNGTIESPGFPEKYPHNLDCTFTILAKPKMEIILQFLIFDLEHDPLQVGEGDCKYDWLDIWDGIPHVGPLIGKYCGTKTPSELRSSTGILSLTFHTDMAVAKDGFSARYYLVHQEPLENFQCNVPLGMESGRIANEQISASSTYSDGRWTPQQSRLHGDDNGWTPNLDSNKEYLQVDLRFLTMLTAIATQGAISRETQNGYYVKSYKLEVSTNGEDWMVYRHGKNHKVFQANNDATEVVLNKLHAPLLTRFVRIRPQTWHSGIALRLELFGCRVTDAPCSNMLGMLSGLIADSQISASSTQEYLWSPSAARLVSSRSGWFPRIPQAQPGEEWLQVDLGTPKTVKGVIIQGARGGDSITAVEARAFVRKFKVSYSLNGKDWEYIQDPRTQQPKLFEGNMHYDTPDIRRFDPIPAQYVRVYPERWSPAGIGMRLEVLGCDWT

Molecule: soluble ectodomain of the HCMV Pentamer (strain Towne) (from UniProt P17176 24-718) (complex)
Kd [1]: 7.9 nM
Kd [2]: 2.2 nM

binding result [3]: binds
B1: 1-32 IgG (antibody, V domains shown)
VH: QVKLVESGGGVVQPGRSLRLSCAGSGFAFDNYAMHWVRQAPGKGLEWVAVISLEGRNKYYAGPAKGRFSISRDNSRNTVHLQMNSLRPEDTAVYFCARDMRYYYDSNGHYRNRYGMDVWGQGTTVIVSS
VL: DIQMTQSPSSLSASVGDSVTITCQASQDINQFVSWYQQKPGKPPKLLIYDASNLESGVPSRFSGSGSGTHFTFTISSLQPDDIATYYCQQYENLFTFGPGTKVDIK
